T1: full-length Snu66 (recombinant) (S. cerevisiae, UniProt Q12420 1-587)
T1 sequence (looked up): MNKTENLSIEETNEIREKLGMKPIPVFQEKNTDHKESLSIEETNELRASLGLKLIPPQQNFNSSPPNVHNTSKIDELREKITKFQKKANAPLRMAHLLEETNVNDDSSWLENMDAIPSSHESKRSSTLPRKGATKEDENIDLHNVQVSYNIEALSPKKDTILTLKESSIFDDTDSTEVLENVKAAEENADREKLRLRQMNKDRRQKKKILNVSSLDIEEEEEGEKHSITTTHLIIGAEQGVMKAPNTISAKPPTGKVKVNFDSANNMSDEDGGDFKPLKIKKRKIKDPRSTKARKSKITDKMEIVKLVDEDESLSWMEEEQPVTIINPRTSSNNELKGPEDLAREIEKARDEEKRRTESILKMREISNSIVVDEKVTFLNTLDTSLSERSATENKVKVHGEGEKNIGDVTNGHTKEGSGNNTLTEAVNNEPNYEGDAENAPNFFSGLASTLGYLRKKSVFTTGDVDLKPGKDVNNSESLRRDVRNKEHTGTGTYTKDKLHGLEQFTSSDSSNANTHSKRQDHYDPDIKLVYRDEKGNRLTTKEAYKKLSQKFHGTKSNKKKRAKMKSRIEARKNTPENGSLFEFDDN

B1: recombinant 6×His-tagged Hub1 (natural protein, S. cerevisiae)
chain: MIEVVVNDRLGKKVRVKCLAEDSVGDFKKVLSLQIGTQPNKIVLQKGGSVLKDHISLEDYEVHDQTNLELYYL

Tests used:
[1] = molecular target: T1, full-length Snu66 (recombinant); experiment: ITC
[2] = molecular target: B1; experiment: NMR titration

Binder | Kd [1] | binding result [2]
B1 | 590 ± 70 nM | 
N-terminal 65-amino-acid fragment of Snu66 (domain or fragment, S. cerevisiae, UniProt Q12420 1-65, looked up) MNKTENLSIEETNEIREKLGMKPIPVFQEKNTDHKESLSIEETNELRASLGLKLIPPQQNFNSSP |  | binds

Reference: article PMC3587138 (Nature, 2011)
